Patent publication US5543498A, “Peptides to overcome inhibition of nerve growth” (The General Hospital Corporation, priority 1995, dated 1996)
Entries after “also recorded” stand apart in the source; their conditions may differ. No end group written: not given here.

Tests used:
Go = Go (Homo sapiens, UniProt P09471); assay: GTPγ S binding to Go (nitrocellulose filtration assay); type: biochemical; conditions: for effect of mutant decapeptides on GTPγ S binding to Go: peptide 250 μM, binding without peptides = 100%; for effect on GTPγ S binding to Go, dose response: oxidized (performic acid) vs control peptide, same concentration range
Chain of Go (P09471 whole entry): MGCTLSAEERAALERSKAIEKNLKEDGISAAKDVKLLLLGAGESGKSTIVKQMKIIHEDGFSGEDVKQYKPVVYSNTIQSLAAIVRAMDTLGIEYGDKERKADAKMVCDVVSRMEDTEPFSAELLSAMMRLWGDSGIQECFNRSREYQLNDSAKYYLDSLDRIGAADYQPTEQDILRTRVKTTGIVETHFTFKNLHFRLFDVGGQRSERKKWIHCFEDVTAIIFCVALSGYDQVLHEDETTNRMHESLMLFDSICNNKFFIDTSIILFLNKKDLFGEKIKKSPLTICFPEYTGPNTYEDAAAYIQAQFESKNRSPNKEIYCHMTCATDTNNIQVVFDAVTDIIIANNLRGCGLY
Protocol: The GAP-43 1-10 peptide was oxidized using performic acid according to the procedures of A. Roher et al., Proc. Natl. Acad. Sci. USA 83:2662 (1986). Briefly, 10 mM peptide was incubated with formic acid solution containing 3% H2 O2 at 25° C. for one hour. The activation state of Go was determined in a nitrocellulose filtration assay as described by S. M. Strittmatter et al., Proc. Natl. Acad. Sci. USA 90:5327 (1993).
Both cysteine residues at positions 3 and 4 in the native GAP-43 1-10 peptide were replaced with methionine, tyrosine, aspartate, glutamate, lysine, arginine, serine, and tryptophan. These mutant peptides were tested for their ability to influence GTPγ S binding to Go.

[1] = tested on: Chick dorsal root ganglion (DRG) neurons; type: cell-based
Protocol: Chick DRGs from embryonic day 7 (E7) were explanted onto laminin-coated chamber slides in F12 medium with 10 ng/ml nerve growth factor and 10% fetal bovine serum. After 20 hours, peptide solutions or phosphate-buffered saline (PBS) in 1 mM DTT was added to the explants (225 μl) and the mixture incubated at 27° C. for one hour. BME, prepared following the procedure of J. A. Raper and J. P. Kapfhammer, Neuron 2:21 (1990), was added to the explants and incubated for 30 minutes. For each explant, all growth cones were scored as collapsed or fan-shaped (M. Igarashi et al., Science 259:77 (1993)).
In another series of experiments the GAP-43 1-10 peptide was added into the culture medium at 10^-8 M one hour prior to the addition of BME. After 30 minutes incubation with BME, the explant was fixed in glutaraldehyde and its growth cones were scored.
After exposing the PTX treated neurons to BME and the GAP-43 1-10, the amount of growth cone collapse was measured.
The procedure described in Example 2 was followed with the exception that one hour prior to the addition of BME (0.15 mg protein/ml) to the DRG culture medium, either the methionine or tyrosine mutant peptide was introduced at a concentration of 10^-4 M.

Substance: [3Y, 4Y]GAP43 (1-10) (MLYYMRRTKQ) [peptide-Y, GAP-43 1-10 peptide with both cysteines at positions 3 and 4 replaced with tyrosine]
- effect of mutant decapeptides on GTPγ S binding to Go (Go): attenuate GTPγ S binding to Go; also recorded: antagonist of G protein stimulation
- effect of mutant decapeptides on GTPγ S binding to Go (Go; listed as tyrosine): inhibits GTPγ S binding to Go
- shift of BME dose response: BME needed to cause 50% collapse ([1]; DRG, 10^-4 M peptide, relative to no peptide): about twice
- inhibition of growth cone collapse induced by BME ([1]; DRG, BME 0.15 mg protein/ml, peptide 10^-4 M one hour before BME): approximately 30%
- effect of the peptides by themselves on growth cones ([1]; doses used for the BME dose response (FIG. 3C)): do not have any evident effect by themselves

Substance: oxidized GAP-43 1-10 peptide: GAP-43 1-10 peptide oxidized using performic acid (MLCCMRRTKQ; also: oxidized using performic acid)
- effect on GTPγ S binding to Go, dose response (Go; listed as Oxidation of the GAP-43 1-10 N terminus): dose-dependent inhibition
- effect on GTPγ S binding to Go, dose response (Go; listed as Oxidation of the GAP-43 1-10 N-terminus): dose-dependent inhibition
- effect on GTPγ S binding to Go, dose response (Go; listed as oxidation of the peptide by performic acid): inhibitory for Go

Substance: pertussis toxin [PTX, reference compound]
- effect on growth cone collapse induced by BME ([1]; PTX 20 ng/ml, BME 0.075 mg/ml): do not inhibit the collapse induced by BME
- effect on GAP-43 1-10 peptide potentiation of BME-induced growth cone collapse ([1]; PTX 20 ng/ml, BME 0.075 mg/ml plus 10^-8 M GAP-43 1-10 peptide, listed as pertussis toxin): blocks
